Earlier results on 1 substance are cited in article PMC12694644.

What is called Kd is the equilibrium constant for the complex coming apart.

The series concerns the target IL-23 p19 (Homo sapiens) (UniProt Q9NPF7).

Sequence of IL-23 p19 (Homo sapiens) (Q9NPF7 20-189): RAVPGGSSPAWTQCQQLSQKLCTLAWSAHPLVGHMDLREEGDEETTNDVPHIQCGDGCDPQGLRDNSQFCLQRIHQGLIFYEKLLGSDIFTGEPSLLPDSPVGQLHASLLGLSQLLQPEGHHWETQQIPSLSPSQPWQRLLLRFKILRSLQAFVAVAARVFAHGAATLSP

Take Guselkumab: the Kd is 3.3 pM.
